In patent publication US11672873 (dated 2023):

B1: anti-B7-H4 antibody 801 (antibody, V domains shown)
VH: EVQLVESGGGLVQPGGSLRLSCAASGFTFNSYAMHWVRQAPGKGLEWVSAISGNGGSTRYADSVKGRFTISRDNSKNTLYLQMNSLRAEDTAVYYCARDRFRKVHGFDVWGQGTLVTVSS
VL: DIQMTQSPSSLSASVGDRVTITCQASQDISNYLNWYQQKPGKAPKLLIYDASNLETGVPSRFSGSGSGTDFTFTISSLQPEDIATYYCQQDATFPLTFGQGTKVEIK
B2: anti-B7-H4 antibody 817 (antibody, V domains shown)
VH: EVQLVESGGGLVQPGGSLRLSCAASGFTFSSYAMHWVRQAPGKGLEWVSAISGSGGSTRYADSVKGRFTISRDNSKNTLYLQMNSLRAEDTAVYYCARGRWSKWGFDVWGQGTLVTVSS
VL: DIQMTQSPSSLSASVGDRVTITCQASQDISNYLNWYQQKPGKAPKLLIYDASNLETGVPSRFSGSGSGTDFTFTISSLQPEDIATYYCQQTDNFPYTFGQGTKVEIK

Assays:
soluble B7H4 [1] = target: T1, soluble B7H4; test: SPR; experiment #2, 25 nM B7-H4
T1 chain: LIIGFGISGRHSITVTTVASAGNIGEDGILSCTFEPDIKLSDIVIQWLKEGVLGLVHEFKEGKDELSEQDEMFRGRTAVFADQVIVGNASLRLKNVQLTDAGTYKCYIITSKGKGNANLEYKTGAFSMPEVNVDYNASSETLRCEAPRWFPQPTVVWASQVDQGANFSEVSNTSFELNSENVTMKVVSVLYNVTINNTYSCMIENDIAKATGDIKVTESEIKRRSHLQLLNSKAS

soluble B7H4 [2] = target: T1, soluble B7H4; test: SPR; experiment #1, 20 nM B7-H4

Row | Binder | Kd (soluble B7H4 [1]) [nM] | Kd (soluble B7H4 [2]) [nM]
1 | B1 | 0.383 | 0.175
2 | B2 | 0.119 | 0.079
